Measurements published in IntAct's records for PubMed 34927784.

Experiments:
erep1_human ENTREP1 = erep1_human ENTREP1 (UniProt Q15884)
cxcr4_human CXCR4 = cxcr4_human CXCR4 (UniProt P61073)
Chain of cxcr4_human CXCR4 (P61073 whole entry): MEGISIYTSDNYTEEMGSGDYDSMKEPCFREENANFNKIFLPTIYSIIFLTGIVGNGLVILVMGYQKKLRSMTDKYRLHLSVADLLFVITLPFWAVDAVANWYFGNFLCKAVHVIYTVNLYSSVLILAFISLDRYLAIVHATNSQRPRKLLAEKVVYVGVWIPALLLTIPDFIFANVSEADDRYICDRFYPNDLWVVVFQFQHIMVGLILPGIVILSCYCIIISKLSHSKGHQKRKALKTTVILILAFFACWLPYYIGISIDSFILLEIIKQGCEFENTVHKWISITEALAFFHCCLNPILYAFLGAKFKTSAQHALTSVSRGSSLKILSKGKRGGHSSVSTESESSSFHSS

Chain of E3 ubiquitin-protein ligase Itchy homolog (Homo sapiens), Q96J02-2 C830A (Q96J02 other isoform, or with tags, fused parts or gaps C830A): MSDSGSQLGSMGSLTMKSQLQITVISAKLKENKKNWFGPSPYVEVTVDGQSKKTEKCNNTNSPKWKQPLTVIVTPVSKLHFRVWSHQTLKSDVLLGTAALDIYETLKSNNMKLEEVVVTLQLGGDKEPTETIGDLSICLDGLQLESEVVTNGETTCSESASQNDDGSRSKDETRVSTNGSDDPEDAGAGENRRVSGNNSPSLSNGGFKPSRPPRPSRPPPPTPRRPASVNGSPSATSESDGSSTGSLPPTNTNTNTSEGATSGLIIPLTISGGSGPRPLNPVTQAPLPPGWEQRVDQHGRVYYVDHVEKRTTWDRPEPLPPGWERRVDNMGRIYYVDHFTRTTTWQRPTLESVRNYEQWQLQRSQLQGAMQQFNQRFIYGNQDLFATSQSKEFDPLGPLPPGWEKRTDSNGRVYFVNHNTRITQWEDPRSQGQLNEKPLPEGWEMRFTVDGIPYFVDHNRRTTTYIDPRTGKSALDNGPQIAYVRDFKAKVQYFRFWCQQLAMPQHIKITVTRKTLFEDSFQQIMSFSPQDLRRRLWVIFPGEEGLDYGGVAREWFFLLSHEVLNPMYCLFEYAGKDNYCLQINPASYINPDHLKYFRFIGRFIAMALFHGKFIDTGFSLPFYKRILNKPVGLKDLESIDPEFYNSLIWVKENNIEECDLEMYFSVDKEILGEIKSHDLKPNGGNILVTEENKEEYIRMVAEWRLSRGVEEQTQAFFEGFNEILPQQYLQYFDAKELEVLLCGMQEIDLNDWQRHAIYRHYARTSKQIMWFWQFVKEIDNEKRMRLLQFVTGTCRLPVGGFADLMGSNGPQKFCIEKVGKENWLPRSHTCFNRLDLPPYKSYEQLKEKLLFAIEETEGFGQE
Chain of erep1_human ENTREP1 (Q15884 whole entry): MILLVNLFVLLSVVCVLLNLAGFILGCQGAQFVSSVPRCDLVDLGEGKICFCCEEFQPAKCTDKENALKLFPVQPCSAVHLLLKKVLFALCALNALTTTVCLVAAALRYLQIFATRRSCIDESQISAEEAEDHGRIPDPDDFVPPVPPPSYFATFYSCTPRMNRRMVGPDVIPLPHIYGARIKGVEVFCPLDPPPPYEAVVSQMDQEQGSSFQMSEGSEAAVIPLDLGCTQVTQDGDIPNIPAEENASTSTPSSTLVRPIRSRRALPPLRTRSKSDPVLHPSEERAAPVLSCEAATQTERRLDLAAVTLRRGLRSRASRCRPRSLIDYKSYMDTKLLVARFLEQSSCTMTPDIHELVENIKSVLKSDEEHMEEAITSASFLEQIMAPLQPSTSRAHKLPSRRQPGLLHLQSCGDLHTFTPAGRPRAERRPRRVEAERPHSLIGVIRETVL

effect of a mutation on the interaction (erep1_human ENTREP1): with no effect | effect of a mutation on the interaction (cxcr4_human CXCR4): with no effect
Substance: E3 ubiquitin-protein ligase Itchy homolog (Homo sapiens), Q96J02-2 C830A
